In experiment [1] the target is T1, matrix metalloproteinase-14 catalytic domain (cdMMP-14) (human, UniProt P50281 114-287, limits assumed, biotinylated with EZ-Link Sulfo-NHS-LC-Biotin for ELISA; amine-coupled to CM5 chip for SPR).
T1 construct: also called catalytic domain of MMP-14; wild-type MMP-14
The experiment is described as follows: ELISA, purified Fab titrated on immobilised biotin-cdMMP-14, anti-Fab-HRP. Background: An ELISA detects its analyte on a solid surface through an enzyme-linked reagent.
Procedure: After labeling purified cdMMP-14 using EZ-Link Sulfo-NHS-LC biotinylation kit (Thermo Fisher), biotin-cdMMP-14 was incubated in a streptavidin coated ELISA plate (Thermo Scientific) blocked with biotin-BSA. After washing, 50 μL of 2 M Fabs were then added to the first well and serially diluted to ˜1 nM and incubated for 30 minutes at 4° C. After washing, the ELISA signals were developed by anti-Fab-HRP (Sigma) and TMB (Thermo Scientific). The color development reaction was stopped by addition of H₂SO₄, and the absorptions at 450 nm were measured.

Experiment [2] addresses T2, MMP-14 catalytic domain mutant T190A (human, UniProt P50281 114-287, limits assumed).
T2 construct: Position as printed
The experiment is described as follows: competitive ELISA, mutant in solution against immobilised wild-type MMP-14.
Procedure: (§1) Fab ELISA. Purified Fab was serially diluted in MMP-14-coated wells followed by incubation at ambient temperature for 1 hr. Bound Fabs were detected using the anti-Fab-HRP conjugate. The half-maximal effective concentration (EC₅₀) was calculated from a four-parametric logistic curve-fitting analysis.

Experiment [3] deals with T3, MMP-14 catalytic domain mutant F198A (human, UniProt P50281 114-287, limits assumed).
T3 construct: Position as printed
The description is as above.
Procedure: as §1

Experiment [4] has as its target T4, MMP-14 catalytic domain mutant Y203A (human, UniProt P50281 114-287, limits assumed).
T4 construct: Position as printed
Described as above.
Procedure: as §1

The target of experiment [5] is T5, MMP-14 catalytic domain mutant F204A (human, UniProt P50281 114-287, limits assumed).
T5 construct: Position as printed
The experiment is described as above.
Procedure: as §1

Experiment [6] concerns the target T6, MMP-14 catalytic domain mutant N231A (human, UniProt P50281 114-287, limits assumed).
T6 construct: Position as printed
The experiment is described as above.
Procedure: as §1

B1: Fab R2C14 (Fab, V domains shown)
VH: EVQLVESGGGLVQPGGSLRLSCAASGFNIYSSSIHWVRQAPGKGLEWVASIYSYSGYTYYADSVKGRFTISADTSKNTAYLQMNSLRAEDTAVYYCARVSNRYNRSSASIAGLQLFRPYGMDYWGQGTLVTVSS
VL: DIQMTQSPSSLSASVGDRVTITCRASQSVSSAVAWYQQKPGKAPKLLIYSASSLYSGVPSRFSGSRSGTDFTLTISSLQPEDFATYYCQQSSYSLITFGQGTKVEIKR
notes: Fab
By EC50 is commonly meant the concentration at which the effect is half-maximal. Read a low EC50 as greater potency. For the molecule B1, in experiment [1], the EC50 was determined as 1.2 nM.

B2: Fab 3A2 (Fab, V domains shown)
VH: EVQLVESGGGLVQPGGSLRLSCAASGFNLSSSSMHWVRQAPGKGLEWVASIYPSYSYTYYADSVKGRFTISADTSKNTAYLQMNSLRAEDTAVYYCARVKLQKDKSHQWIRNLVATPYGRYVMDYWGQGTLVTVSS
VL: DIQMTQSPSSLSASVGDRVTITCRASQSVSSAVAWYQQKPGKAPKLLIYSASSLYSGVPSRFSGSRSGTDFTLTISSLQPEDFATYYCQQYGYPITFGQGTKVEIKR
notes: Synthetic human Fab from E. coli periplasm; also called R3C9; not shown: His tag at C-terminus of heavy chain
On to B2, for which the binding result in experiment [2], in experiment [3], in experiment [4], in experiment [5] and in experiment [6] was “binds” throughout.

For the origin of these results see US20210087296A1 (published 2021).
